The values below come from US20240117038A1 (Ablynx, published 2024).

Numbering of substitutions follows the chain as printed.

The target of test [1] is T1, human CX3CR1 (human, UniProt P49238 1-355).
T1 construct: Overexpressed on CHO K1, Ba/F3 or HEK293T cells; also called huCX3CR1; hCX3CR1
T1 sequence: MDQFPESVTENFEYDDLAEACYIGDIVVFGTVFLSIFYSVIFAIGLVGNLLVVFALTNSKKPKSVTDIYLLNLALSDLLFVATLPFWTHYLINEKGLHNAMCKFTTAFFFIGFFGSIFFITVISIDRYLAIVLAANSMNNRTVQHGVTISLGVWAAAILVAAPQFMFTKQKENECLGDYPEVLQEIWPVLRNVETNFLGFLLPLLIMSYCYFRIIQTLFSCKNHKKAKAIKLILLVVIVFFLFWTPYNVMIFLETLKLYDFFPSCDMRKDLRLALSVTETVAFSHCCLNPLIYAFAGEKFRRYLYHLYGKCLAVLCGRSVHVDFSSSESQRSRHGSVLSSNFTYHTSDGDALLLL
Description: flow cytometry, AF-647 labelled soluble CX3CL1 on transiently transfected HEK293T cells, human CX3CR1 WT. A general note: A flow cytometer gives signals particle by particle.

Test [2] concerns the target T1, human CX3CR1. Description: cell-based or functional assay.
The target in test [3] is T2, mouse CX3CR1 (mouse, UniProt Q9Z0D9 1-354).
T2 sequence (looked up): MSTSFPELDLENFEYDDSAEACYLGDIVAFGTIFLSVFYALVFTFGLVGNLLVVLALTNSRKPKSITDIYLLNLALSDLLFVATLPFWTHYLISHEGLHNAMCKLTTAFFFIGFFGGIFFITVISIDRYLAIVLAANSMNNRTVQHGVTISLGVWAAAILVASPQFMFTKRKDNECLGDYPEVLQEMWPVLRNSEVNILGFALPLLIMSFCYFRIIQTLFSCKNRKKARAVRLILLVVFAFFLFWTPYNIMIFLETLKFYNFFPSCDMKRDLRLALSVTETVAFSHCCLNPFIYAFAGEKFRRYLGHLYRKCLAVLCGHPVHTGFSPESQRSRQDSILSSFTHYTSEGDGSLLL
Description: cell-based or functional assay.

Test [4] addresses T3, human CX3CR1 V249I/T280M (human, UniProt P49238 1-355).
T3 construct: Transiently transfected in HEK293T cells (pcDNA3.1); also called huCX3CR1 variant V249I and T280M
T3 chain: T1 sequence with V249I, T280M
Put plainly: flow cytometry, AF-647 labelled soluble CX3CL1 on transiently transfected HEK293T cells, human CX3CR1 V249I/T280M.

The target in test [5] is T4, human CX3CR1 T280M (human, UniProt P49238 1-355).
T4 construct: Transiently transfected in HEK293T cells (pcDNA3.1); also called huCX3CR1 variant T280M (Rs3732378)
T4 sequence: T1 sequence with T280M
Put plainly: flow cytometry, AF-647 labelled soluble CX3CL1 on transiently transfected HEK293T cells, human CX3CR1 T280M.

Test [6] addresses T5, human CX3CR1 V249I (human, UniProt P49238 1-355).
T5 construct: Transiently transfected in HEK293T cells (pcDNA3.1); also called huCX3CR1 variant V249I (Rs3732379); printed V2491 in the text
T5 sequence: T1 sequence with V249I
Put plainly: flow cytometry, AF-647 labelled soluble CX3CL1 on transiently transfected HEK293T cells, human CX3CR1 V249I.

B1: human CX3CL1/Fraktalkine (ligand, UniProt P78423 25-339, looked up)
chain: QHHGVTKCNITCSKMTSKIPVALLIHYQQNQASCGKRAIILETRQHRLFCADPKEQWVKDAMQHLDRQAAALTRNGGTFEKQIGEVKPRTTPAAGGMDESVVLEPEATGESSSLEPTPSSQEAQRALGTSPELPTGVTGSSGTRLPPTPKAQDGGPVGTELFRVPPVSTAATWQSSAPHQPGPSLWAEAKTSEAPSTQDPSTQASTASSPAPEENAPSEGQRVWGQGQSPRPENSLEREEMGPVPAHTDAFQDWGPGSMAHVSVVPVSSEGTPSREPVASGSWTPKAEEPIHATMDPQRLGVLITPVPDAQAATR
modifications: labelled with AF647 (in house) in the binding and competition assays; unlabelled in the chemotaxis and pERK assays
notes: Bought protein; also called huCX3CL1; huCX3CL1-AF647
For the molecule B1, the EC50 – broadly, the concentration needed to bring the measured effect to its halfway point – was 3.3 nM in test [1], 4.2 nM in test [4], 19 nM in test [5] and 2.1 nM in test [6]. The “EC50, ERK phosphorylation in CHO K1 huCX3CR1 cells” value in test [2] is 2 nM. Further, the “EC50, ERK phosphorylation in CHO K1 mCX3CR1 cells” value in test [3] was determined as 2.5 nM.
